From patent US20090075921A1, “Bone/joint disease sensitivity gene and use thereof” (Riken, priority 2004, published 2009)

Tests used:
[1] = test system: Smad3-specific gene transcription in NHAC; experiment: SBE4-Luc reporter assay of TGF-β1-stimulated Smad3-specific gene transcription in NHAC; type: cell-based, human; conditions: asporin 40 μg/ml, TGF-β1 10 ng/ml, 24 hours
Procedure: NHAC was inoculated to a 24-well plate at 2.5×10^4 cells/well, cultured in a DMEM/F12 containing 10% FBS and penicillin/streptomycin for 24 hours, and transfected with the SBE4-Luc (Smad binding element ×4-luciferase) plasmid and the pRL-TK vector, which was used as endogenous control. 48 hours later, asporin (40 μg/ml) was added; still 12 hours later, TGF-β1 (10 ng/ml) was added; and the cells were incubated for 24 hours. The luciferase activity in the cells was measured using a PG-DUAL-SP reporter assay system (Toyo Ink).

[2] = test system: Smad2 phosphorylation in NHAC; experiment: Smad2 phosphorylation by TGF-β1 in NHAC (Western blotting); type: cell-based, human; conditions: asporin 20 μg/ml, TGF-β1 40 ng/ml, 10 minutes
Procedure: NHAC was inoculated to a 12-well plate, and cultured in a DMEM/F12 containing 10% FBS and penicillin/streptomycin; when the cells became nearly confluent, the medium was exchanged with the same medium containing 0.2% serum. 12 hours later, asporin (20 μg/ml) was added; still 12 hours later, TGF-β1 (40 ng/ml) was added; 10 minutes later, the cells were lysed with the M-PER reagent (PIERCE). SDA-PAGE was performed using this cell extract, and Western blotting was performed according to the protocol attached to an antibody product of Cell Signaling Company. As the primary antibodies for detection of phosphorylated Smad2 and Smad2 protein, Phospho-Smad2 antibody (Cell Signaling) and rabbit anti-Smad2 (Zymed Laboratories) were used, respectively. As the […], anti-rabbit IgG-HRP (Cell Signaling) was used.

ATDC5 cells [3] = experiment: bFGF-stimulated BrdU uptake in ATDC5 cells; type: cell-based, mouse; conditions: serum-free DMEM/F12, 20 hours
Procedure: When ATDC5 cells inoculated in the same manner as Example 40 became subconfluent, the cells were twice washed with serum-free DMEM/F12, serum-free DMEM/F12 was added at 1 ml/well, and the cells were cultured for 24 to 48 hours. Asporin and bFGF were added thereto, and the cells were further cultured for 20 hours, after which BrdU uptake assay was performed using Cell Proliferation ELISA, BrdU (Roche) by the protocol modified for 12-well plate assay as described below. Specifically, BrdU was added to the cells to obtain a final concentration of 1 μM, and the cells were cultured at 37° C. for 4 hours, after which the culture broth was removed by suction, and a fixative solution (FixDenat) was added at 1 ml/well, after which the plate was allowed to stand at room temperature for 30 minutes. The fixative solution was removed by suction, BrdU antibody-HRP (×1000) was added at 0.5 ml/well, and the plate was allowed to stand at room temperature for 1 hour, washed with TBST four times, a substrate solution was added at 0.3 ml/well to proceed the reaction at room temperature for 30 minutes until sufficient color development occurred. 1 M phosphoric acid was added at 0.3 ml/well to step the reaction, transferred to a 96-well plate, and OD415 was measured using a plate reader.

TGF-β1 = TGF-β1 (Homo sapiens, UniProt P01137); experiment: Binding assay of purified recombinant mouse asporin and TGF-β by microplate assay method; conditions: biotinylated mouse asporin, TGF-β1-coated plate, OD405
TGF-β1, sequence (P01137 279-390 limits assumed, species assumed): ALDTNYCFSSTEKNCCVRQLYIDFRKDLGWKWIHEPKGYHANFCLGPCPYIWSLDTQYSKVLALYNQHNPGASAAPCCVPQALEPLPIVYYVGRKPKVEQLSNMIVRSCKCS
Procedure: (§1) A binding assay was performed using the method described in Example 24 with a partial modification as described below. To a Maxisorp 96-well microplate of Nunc, a 1 μg/ml TGF-β1 solution prepared with 0.05M sodium carbonate buffer (pH 9.6) was dispensed at 100 μl/well, and the microplate was coated with TGF-β1 at 4° C. overnight. The TGF-β-coated wells were blocked in 200 μl/well of Block Ace at 37° C. for 3 hours. Next, mouse asporin and biotinylated mouse asporin, diluted with Block Ace, were added to obtain a total volume of 100 μl per well, and the microplate was incubated at 4° C. overnight. The wells were washed with […] of TBST three times, after which streptavidin-alkaline phosphatase (Novagen) diluted 1000 fold with TBST was added at […], and the microplate was incubated at room temperature for 1 hour. The wells were washed with 400 μl/well of TBST five times, and then colored using an alkaline phosphatase substrate kit (BIO-RAD), and the absorbance at 405 nm was measured using Ultramark Microplate Imaging System (BIO-RAD).

ATDC5 cells [4] = experiment: Purified recombinant mouse asporin on TGF-β1-stimulated aggrecan and type II collagen gene expression in ATDC5; type: cell-based; conditions: TGF-β1 10 ng/ml, 18 hours, corrected by GAPDH
Procedure: ATDC5 cells were inoculated to a 12-well plate at […], and cultured in a medium 1-2 (a DMEM/F12 medium containing 5% FBS, ITS (Sigma), penicillin (100 U/ml) and streptomycin (100 μg/ml)) for 2 days. Purified mouse asporin diluted with a medium 1-2 containing 0.2% FBS was added to the cells, and the cells were further cultured for 12 hours, after which TGF-β1 (10 ng/ml) was added, and the cells were further cultured for 18 hours, after which total RNA extraction, purification, cDNA synthesis, and real-time PCR were performed in the same manner as Example 18. At this time, the expression levels of the aggrecan and type II collagen genes were corrected by the expression level of the […] (GAPDH) gene.

bFGF = bFGF (Homo sapiens, UniProt P09038); experiment: Binding assay of mouse asporin and bFGF by microplate assay method; conditions: bFGF-coated plate, OD405
bFGF, sequence (P09038 134-288 limits assumed, species assumed): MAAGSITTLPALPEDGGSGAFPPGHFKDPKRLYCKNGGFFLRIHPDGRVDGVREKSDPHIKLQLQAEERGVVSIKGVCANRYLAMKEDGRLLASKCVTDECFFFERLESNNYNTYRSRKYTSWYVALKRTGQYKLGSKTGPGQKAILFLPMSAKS
Procedure: as §1
A binding assay was performed in the same manner as Example 34 except that the microplate was coated with bFGF solution in place of 1 μg/ml TGF-β1.

NHAC = experiment: Articular chondrocyte differentiation maintenance in redifferentiated NHAC; type: cell-based, human; conditions: 7 days, TGF-β1 40 ng/ml, asporin 20 μg/ml where added
Procedure: NHAC was redifferentiated by alginate beads culture for 2 weeks using a chondrocyte differentiation medium (CDM) manufactured by Cambrex Company according to the protocol attached. These redifferentiated cells were inoculated to a Lab-Tek II chamber slide (Nunc), a DMEM/F12 containing 5% FBS, ITS (Sigma), and TGF-β1 (40 ng/ml) was added, and the cells were allowed to maintain the degree of differentiation thereof; the effects of addition of asporin (20 μg/ml) on the cell morphology and extracellular proteoglycan accumulation were examined.

[5] = test system: Smad2 phosphorylation in ATDC5 cells; experiment: TGF-β1-stimulated Smad2 phosphorylation in ATDC5 cells (Western blotting); type: cell-based, mouse; conditions: TGF-β1 10 ng/ml, 5 minutes
Procedure: ATDC5 was inoculated to a 12-well plate, and cultured using the medium 1-2 described in Example 19 until the cells became confluent, after which the medium was exchanged with the same medium but containing 0.2% FBS; 4 hours later, asporin was added. 12 hours later, TGF-β1 (10 ng/ml) was added; 5 minutes later, the cells were lysed with the M-PER reagent (PIERCE). Using this cell extract, SDS-PAGE was performed, and according to the protocol attached to an antibody product of Cell Signaling Company, Western blotting was performed. As the primary antibodies for detection of phosphorylated Smad2 and Smad2 protein, phospho-Smad2 antibody (Cell Signaling) and rabbit anti-Smad2 (Zymed Laboratories) were used, respectively. As the secondary antibody, anti-rabbit IgG-HRP (Cell Signaling) was used.

B1: purified mouse asporin: recombinant mouse asporin expressed in Escherichia coli, refolded from insoluble fraction and purified by gel filtration (protein)
chain: DMEDTDDDDNDDDDNSLFPTKEPVNPFFPFDLFPTCPFGCQCYSRVVHCSDLGLTSVPNNIPFDTRMVDLQNNKIKEIKENDFKGLTSLYALILNNNKLTKIHPKTFLTTKKLRRLYLSHNQLSEIPLNLPKSLAELRIHDNKVKKIQKDTFKGMNALHVLEMSANPLENNGIEPGAFEGVTVFHIRIAEAKLTSIPKGLPPTLLELHLDFNKISTVELEDLKRYRELQRLGLGNNRITDIENGTFANIPRVREIHLEHNKLKKIPSGLQELKYLQIIFLHYNSIAKVGVNDFCPTVPKMKKSLYSAISLFNNPMKYWEIQPATFRCVLGRMSVQLGNVGK
modifications: left off: small tags and cut ends
TGF-β1-stimulated elevation of luciferase activity (SBE4-Luc) [1]: significantly suppressed | Smad2 phosphorylation by TGF-β1 stimulation [2]: suppressed the Smad2 phosphorylation by TGF-β1 stimulation | BrdU uptake in the absence of bFGF (ATDC5 cells [3]): did not change BrdU uptake | BrdU uptake in the presence of bFGF (ATDC5 cells [3]): further enhance the increase in BrdU uptake | binding to TGF-β1 (microplate) (TGF-β1): bound to TGF-β1 concentration-dependently and specifically | suppression of the TGF-β1-stimulated expression of the aggrecan and type II collagen genes (ATDC5 cells [4]): observed depending on the amount of purified mouse asporin added | binding to bFGF (microplate) (bFGF): bound to bFGF concentration-dependently and specifically | Safranine-O stainability (extracellular proteoglycan) (NHAC): decreased | cell morphology (NHAC): fibroblast-like morphology | Smad2 phosphorylation by TGF-β1 stimulation [5]: suppressed the Smad2 phosphorylation by TGF-β1 (10 ng/ml) stimulation concentration-dependently
